Consider one substance from paper PMC12368639.

The target of this experiment is Cluster of Differentiation 147 (CD147) (human). The experiment can be described thus: single-molecule force spectroscopy (AFM).
Chain of Cluster of Differentiation 147 (CD147) (human) (P35613 other isoform, or with tags, fused parts or gaps): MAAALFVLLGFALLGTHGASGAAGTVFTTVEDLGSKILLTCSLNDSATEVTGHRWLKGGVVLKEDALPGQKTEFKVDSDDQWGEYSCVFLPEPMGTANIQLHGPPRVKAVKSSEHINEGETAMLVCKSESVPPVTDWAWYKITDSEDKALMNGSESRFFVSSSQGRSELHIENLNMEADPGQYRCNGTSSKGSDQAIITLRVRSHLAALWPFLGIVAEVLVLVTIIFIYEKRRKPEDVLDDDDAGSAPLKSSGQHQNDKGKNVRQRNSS

“Full length Spike Protein (SARS-CoV-2) (from UniProt P0DTC2) (natural protein)” yielded a mean adhesion force of 41.9 pN, a mean adhesion force (tip contact time 0 s) of 38.8 pN and a mean adhesion force at 37 °C of 46.2 pN.
